{"source": "paper PMC5414288", "about": "(2017)", "molecular_target": "EGFR (on SKOV3 cells) (Homo sapiens, UniProt P00533)", "assay": "saturation binding assay on SKOV3 cells (radioligand)", "note": "No end group written: not given here. *: point of attachment. HYNIC = NNc1ccc(C(=O)*)cn1"}
{"binder": "{HYNIC}-SSSYHWYGYTPQNVI (also: 99mTc-tricine labeled)", "note": "[HYNIC-SSS-GE11 peptide]", "values": [{"measurement": "Kd", "result": 0.073, "unit": "µM"}]}
